According to IntAct's records for PubMed 31515488:

B1: Septin-12 (Homo sapiens), Q8IYM1 (parent)
chain: MDPLRRSPSPCLSSQPSSPSTPPCEMLGPVGIEAVLDQLKIKAMKMGFEFNIMVVGQSGLGKSTMVNTLFKSKVWKSNPPGLGVPTPQTLQLHSLTHVIEEKGVKLKLTVTDTPGFGDQINNDNCWDPILGYINEQYEQYLQEEILITRQRHIPDTRVHCCVYFVPPTGHCLRPLDIEFLQRLCRTVNVVPVIARADSLTMEEREAFRRRIQQNLRTHCIDVYPQMCFDEDINDKILNSKLRDRIPFAVVGADQEHLVNGRCVLGRKTKWGIIEVENMAHCEFPLLRDLLIRSHLQDLKDITHNIHYENYRVIRLNESHLLPRGPGWVNLAPASPGQLTTPRTFKVCRGAHDDSDDEF
partner: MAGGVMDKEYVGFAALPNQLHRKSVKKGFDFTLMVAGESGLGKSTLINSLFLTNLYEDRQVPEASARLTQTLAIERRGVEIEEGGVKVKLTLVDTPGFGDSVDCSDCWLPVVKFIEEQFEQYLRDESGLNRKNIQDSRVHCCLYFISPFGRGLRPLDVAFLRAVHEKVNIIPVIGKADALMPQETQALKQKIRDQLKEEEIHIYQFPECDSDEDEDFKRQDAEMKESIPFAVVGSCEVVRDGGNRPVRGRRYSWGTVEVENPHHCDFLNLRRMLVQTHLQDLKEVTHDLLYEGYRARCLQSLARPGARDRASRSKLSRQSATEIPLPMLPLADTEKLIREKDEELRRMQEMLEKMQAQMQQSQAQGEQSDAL
B2: Barrier-to-autointegration factor (Homo sapiens), O75531 (parent)
chain: MTTSQKHRDFVAEPMGEKPVGSLAGIGEVLGKKLEERGFDKAYVVLGQFLVLKKDEDLFREWLKDTCGANAKQSRDCFGCLREWCDAFL
partner: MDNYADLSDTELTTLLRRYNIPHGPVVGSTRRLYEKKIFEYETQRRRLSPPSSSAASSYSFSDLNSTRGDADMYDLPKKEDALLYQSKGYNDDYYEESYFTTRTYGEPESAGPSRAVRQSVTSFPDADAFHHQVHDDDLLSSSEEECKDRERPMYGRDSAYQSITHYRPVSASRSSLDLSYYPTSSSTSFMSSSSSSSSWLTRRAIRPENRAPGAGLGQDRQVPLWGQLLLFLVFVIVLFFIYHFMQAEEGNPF
B3: RNA-binding protein 15 (Homo sapiens), Q96T37-3 (parent)
chain: MRTAGRDPVPRRSPRWRRAVPLCETSAGRRVTQLRGDDLRRPATMKGKERSPVKAKRSRGGEDSTSRGERSKKLGGSGGSNGSSSGKTDSGGGSRRSLHLDKSSSRGGSREYDTGGGSSSSRLHSYSSPSTKNSSGGGESRSSSRGGGGESRSSGAASSAPGGGDGAEYKTLKISELGSQLSDEAVEDGLFHEFKRFGDVSVKISHLSGSGSGDERVAFVNFRRPEDARAAKHARGRLVLYDRPLKIEAVYVSRRRSRSPLDKDTYPPSASVVGASVGGHRHPPGGGGGQRSLSPGGAALGYRDYRLQQLALGRLPPPPPPPLPRDLERERDYPFYERVRPAYSLEPRVGAGAGAAPFREVDEISPEDDQRANRTLFLGNLDITVTESDLRRAFDRFGVITEVDIKRPSRGQTSTYGFLKFENLDMSHRAKLAMSGKIIIRNPIKIGYGKATPTTRLWVGGLGPWVPLAALAREFDRFGTIRTIDYRKGDSWAYIQYESLDAAHAAWTHMRGFPLGGPDRRLRVDFADTEHRYQQQYLQPLPLTHYELVTDAFGHRAPDPLRGARDRTPPLLYRDRDRDLYPDSDWVPPPPPVRERSTRTAATSVPAYEPLDSLDRRRDGWSLDRDRGDRDLPSSRDQPRKRRLPEESGGRHLDRSPESDRPRKRHCAPSPDRSPELSSSRDRYNSDNDRSSRLLLERPSPIRDRRGSLEKSQGDKRDRKNSASAERDRKHRTTAPTEGKSPLKKEDRSDGSAPSTSTASSKLKSPSQKQDGGTAPVASASPKLCLAWQGMLLLKNSNFPSNMHLLQGDLQVASSLLVEGSTGGKVAQLKITQRLRLDQPKLDEVTRRIKVAGPNGYAILLAVPGSSDSRSSSSSAASDTATSTQRPLRNLVSYLKQKQAAGVISLPVGGNKDKENTGVLHAFPPCEFSQQFLDSPAKALAKSEEDYLVMIIVRAKLVEQRMKIWNSKL
B4: Isoform 1 of Myotubularin-related protein 9 (Homo sapiens), Q96QG7-1 (parent)
chain: MEFAELIKTPRVDNVVLHRPFYPAVEGTLCLTGHHLILSSRQDNTEELWLLHSNIDAIDKRFVGSLGTIIIKCKDFRIIQLDIPGMEECLNIASSIEALSTLDSITLMYPFFYRPMFEVIEDGWHSFLPEQEFELYSSATSEWRLSYVNKEFAVCPSYPPIVTVPKSIDDEALRKVATFRHGGRFPVLSYYHKKNGMVIMRSGQPLTGTNGRRCKEDEKLINATLRAGKRGYIIDTRSLNVAQQTRAKGGGFEQEAHYPQWRRIHKSIERYHILQESLIKLVEACNDQTHNMDRWLSKLEASNWLTHIKEILTTACLAAQCIDREGASILIHGTEGTDSTLQVTSLAQIILEPRSRTIRGFEALIEREWLQAGHPFQQRCAQSAYCNTKQKWEAPVFLLFLDCVWQILRQFPCSFEFNENFLIMLFEHAYASQFGTFLGNNESERCKLKLQQKTMSLWSWVNQPSELSKFTNPLFEANNLVIWPSVAPQSLPLWEGIFLRWNRSSKYLDEAYEEMVNIIEYNKELQAKVNILRRQLAELETEDGMQESP

Variants of: B1
Settings: with sept1_human SEPTIN1, Q8WYJ6

| Variant | effect of a mutation on the interaction |
| --- | --- |
| MDPLRRSPSPCLSSQPSSPSTPPCEMLGPVGIEAVLDQLKIKAMKMGFEFNIMVVGQSGLGKSTMVNTLFKSKVWKSNPPGLGVPTPQTLQLHSLTHVIEEKGVKLKLTVTDTPGFGDQINNDNCWDPILGYINEQYEQYLQEEILITRQRHIPDTRVHCCVYFVPPTGHCLRPLDIEFLQRLCRTVNVVPVIARADSLTMEEREAFRRRIQRNLRTHCIDVYPQMCFDEDINDKILNSKLRDRIPFAVVGADQEHLVNGRCVLGRKTKWGIIEVENMAHCEFPLLRDLLIRSHLQDLKDITHNIHYENYRVIRLNESHLLPRGPGWVNLAPASPGQLTTPRTFKVCRGAHDDSDDEF [Q213R] | disrupting interaction strength |
| MDPLRRSPSPCLSSQPSSPSTPPCEMLGPVGIEAVLDQLKIKAMKMGFEFNIMVVGQSGLGKSTMVNTLFKSKVWKSNPPGLGVPTPQTLQLHSLTHVIEEKGVKLKLTVTDTPGFGDQINNDNCWDPILGYINEQYEQYLQEEILITRQRHIPDTRVHCCVYFVPPTGHCLRPLDIEFLQRLCRTVNVVPVIARADSLTMEEREAFRRRIQQNLRTHCIDIYPQMCFDEDINDKILNSKLRDRIPFAVVGADQEHLVNGRCVLGRKTKWGIIEVENMAHCEFPLLRDLLIRSHLQDLKDITHNIHYENYRVIRLNESHLLPRGPGWVNLAPASPGQLTTPRTFKVCRGAHDDSDDEF [V222I] | disrupting interaction strength |
| MDPLRRSPSPCLSSQPSSPSTPPCEMLGPVGIEAVLDQLKIKAMKMGFEFNIMVVGQSGLGKSTMVNTLFKSKVWKSNPPGLGVPTPQTLQLHSLTHVIEEKGVKLKLTVTDTPGFGDQINNDNCWDPILGYINEQYEQYLQEEILITRQRHIPDTRVHCCVYFVPPTGHCLRPLDIEFLQRLCRTVNVVPVIARADSLTMEEREAFRRRIQQNLRTHCIDVYPQMCFDEDINDKILNSKLRDRIPFAVVGADQEHLVNGRCDLGRKTKWGIIEVENMAHCEFPLLRDLLIRSHLQDLKDITHNIHYENYRVIRLNESHLLPRGPGWVNLAPASPGQLTTPRTFKVCRGAHDDSDDEF [V263D] | disrupting interaction strength |
| MDPLRRSPSPCLSSQPSSPSTPPCEMLGPVGIEAVLDQLKIKAMKMGFEFNIMVVGQSGLGKSTMVNTLFKSKVWKSNPPGLGVPTPQTLQLHSLTHVIEEKGVKLKLTVTDTPGFGDQINNDNCWDPILGYINEQYEQYLQEEILITRQRHIPDTRVHCCVYFVPPTGHCLRPLDIEFLQRLCRTVNVVPVIARADSLTMEEREAFRRRIQQNLRTHCIDVYPQMCFDEDINDKILNSKLRDRIPFAVVGADQEHLVNGRCVLGRKTKWGIIEVENMAHCEFPLLRDLLIRSHLQDLKDITHNIHYENYCVIRLNESHLLPRGPGWVNLAPASPGQLTTPRTFKVCRGAHDDSDDEF [R311C] | disrupting interaction strength |

Variants of: B2
Settings: with emd_human EMD

| Variant | effect of a mutation on the interaction |
| --- | --- |
| MTTSQKHRDFVTEPMGEKPVGSLAGIGEVLGKKLEERGFDKAYVVLGQFLVLKKDEDLFREWLKDTCGANAKQSRDCFGCLREWCDAFL | with no effect |

Variants of: B3
Settings: with nav2_human NAV2, Q8IVL1
Sequence of nav2_human NAV2, Q8IVL1 (Q8IVL1 whole entry): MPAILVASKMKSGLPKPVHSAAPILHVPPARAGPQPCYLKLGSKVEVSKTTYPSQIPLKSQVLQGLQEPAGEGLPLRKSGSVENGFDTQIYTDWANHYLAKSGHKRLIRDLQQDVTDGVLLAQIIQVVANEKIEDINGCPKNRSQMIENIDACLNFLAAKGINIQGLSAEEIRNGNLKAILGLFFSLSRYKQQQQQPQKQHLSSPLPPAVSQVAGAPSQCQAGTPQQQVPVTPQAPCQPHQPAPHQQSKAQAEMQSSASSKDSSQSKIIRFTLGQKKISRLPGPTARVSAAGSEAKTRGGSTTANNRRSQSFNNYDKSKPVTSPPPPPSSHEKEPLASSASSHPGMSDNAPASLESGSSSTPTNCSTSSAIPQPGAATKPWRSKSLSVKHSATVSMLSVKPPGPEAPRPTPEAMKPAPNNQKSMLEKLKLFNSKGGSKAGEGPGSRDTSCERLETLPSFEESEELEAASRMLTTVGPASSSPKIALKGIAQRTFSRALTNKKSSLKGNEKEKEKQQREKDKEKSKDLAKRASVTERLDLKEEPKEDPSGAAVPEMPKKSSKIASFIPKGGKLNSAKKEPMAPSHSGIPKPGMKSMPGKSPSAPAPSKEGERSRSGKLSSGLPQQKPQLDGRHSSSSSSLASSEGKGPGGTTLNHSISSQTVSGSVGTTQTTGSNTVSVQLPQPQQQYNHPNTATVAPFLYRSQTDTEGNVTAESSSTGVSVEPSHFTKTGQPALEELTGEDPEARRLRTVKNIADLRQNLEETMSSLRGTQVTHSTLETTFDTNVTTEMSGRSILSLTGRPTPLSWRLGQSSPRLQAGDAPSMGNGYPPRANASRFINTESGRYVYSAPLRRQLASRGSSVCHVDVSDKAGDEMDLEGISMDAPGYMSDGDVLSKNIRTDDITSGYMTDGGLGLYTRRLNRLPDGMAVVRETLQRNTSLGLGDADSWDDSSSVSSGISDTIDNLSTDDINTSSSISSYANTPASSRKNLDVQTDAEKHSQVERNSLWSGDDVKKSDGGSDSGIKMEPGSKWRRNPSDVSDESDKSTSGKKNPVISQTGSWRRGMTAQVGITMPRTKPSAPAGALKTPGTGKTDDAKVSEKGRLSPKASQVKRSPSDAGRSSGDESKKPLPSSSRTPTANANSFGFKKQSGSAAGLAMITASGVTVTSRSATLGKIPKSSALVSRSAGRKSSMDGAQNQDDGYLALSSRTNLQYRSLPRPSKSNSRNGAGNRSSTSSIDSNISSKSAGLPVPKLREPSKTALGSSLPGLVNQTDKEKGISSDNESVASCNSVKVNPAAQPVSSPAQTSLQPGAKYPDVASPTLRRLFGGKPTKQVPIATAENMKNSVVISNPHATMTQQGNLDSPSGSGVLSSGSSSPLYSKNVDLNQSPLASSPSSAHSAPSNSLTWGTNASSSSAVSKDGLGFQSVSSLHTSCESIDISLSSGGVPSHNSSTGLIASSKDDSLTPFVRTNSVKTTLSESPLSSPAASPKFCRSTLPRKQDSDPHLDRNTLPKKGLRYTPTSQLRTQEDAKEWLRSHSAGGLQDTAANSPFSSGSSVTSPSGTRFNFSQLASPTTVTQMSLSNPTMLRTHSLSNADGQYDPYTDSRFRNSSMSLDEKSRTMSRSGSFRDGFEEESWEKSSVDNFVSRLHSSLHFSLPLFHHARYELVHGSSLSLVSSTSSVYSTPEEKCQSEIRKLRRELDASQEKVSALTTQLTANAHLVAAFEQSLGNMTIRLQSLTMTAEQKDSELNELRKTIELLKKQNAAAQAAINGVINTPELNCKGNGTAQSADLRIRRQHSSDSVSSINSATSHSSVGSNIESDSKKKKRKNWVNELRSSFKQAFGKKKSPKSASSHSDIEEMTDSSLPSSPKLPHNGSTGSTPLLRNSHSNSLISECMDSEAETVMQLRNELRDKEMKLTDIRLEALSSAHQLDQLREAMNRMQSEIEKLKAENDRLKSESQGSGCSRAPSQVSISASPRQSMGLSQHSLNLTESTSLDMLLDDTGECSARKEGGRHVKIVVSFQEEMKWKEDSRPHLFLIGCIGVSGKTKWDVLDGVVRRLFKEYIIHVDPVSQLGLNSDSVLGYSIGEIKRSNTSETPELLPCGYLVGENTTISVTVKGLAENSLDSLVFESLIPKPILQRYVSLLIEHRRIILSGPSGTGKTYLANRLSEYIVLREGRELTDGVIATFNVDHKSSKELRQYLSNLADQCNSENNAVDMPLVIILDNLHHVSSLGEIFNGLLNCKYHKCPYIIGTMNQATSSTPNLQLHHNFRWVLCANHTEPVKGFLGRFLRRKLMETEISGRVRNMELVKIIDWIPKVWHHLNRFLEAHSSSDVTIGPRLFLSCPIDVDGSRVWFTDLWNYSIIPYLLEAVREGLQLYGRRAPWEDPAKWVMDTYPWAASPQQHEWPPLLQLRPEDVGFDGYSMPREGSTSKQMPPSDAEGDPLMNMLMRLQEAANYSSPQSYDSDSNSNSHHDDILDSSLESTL

| Variant | effect of a mutation on the interaction |
| --- | --- |
| R961Q | disrupting interaction strength |

Variants of: B4
Settings: with emil1_human EMILIN1, Q9Y6C2
Sequence of emil1_human EMILIN1, Q9Y6C2 (Q9Y6C2 whole entry): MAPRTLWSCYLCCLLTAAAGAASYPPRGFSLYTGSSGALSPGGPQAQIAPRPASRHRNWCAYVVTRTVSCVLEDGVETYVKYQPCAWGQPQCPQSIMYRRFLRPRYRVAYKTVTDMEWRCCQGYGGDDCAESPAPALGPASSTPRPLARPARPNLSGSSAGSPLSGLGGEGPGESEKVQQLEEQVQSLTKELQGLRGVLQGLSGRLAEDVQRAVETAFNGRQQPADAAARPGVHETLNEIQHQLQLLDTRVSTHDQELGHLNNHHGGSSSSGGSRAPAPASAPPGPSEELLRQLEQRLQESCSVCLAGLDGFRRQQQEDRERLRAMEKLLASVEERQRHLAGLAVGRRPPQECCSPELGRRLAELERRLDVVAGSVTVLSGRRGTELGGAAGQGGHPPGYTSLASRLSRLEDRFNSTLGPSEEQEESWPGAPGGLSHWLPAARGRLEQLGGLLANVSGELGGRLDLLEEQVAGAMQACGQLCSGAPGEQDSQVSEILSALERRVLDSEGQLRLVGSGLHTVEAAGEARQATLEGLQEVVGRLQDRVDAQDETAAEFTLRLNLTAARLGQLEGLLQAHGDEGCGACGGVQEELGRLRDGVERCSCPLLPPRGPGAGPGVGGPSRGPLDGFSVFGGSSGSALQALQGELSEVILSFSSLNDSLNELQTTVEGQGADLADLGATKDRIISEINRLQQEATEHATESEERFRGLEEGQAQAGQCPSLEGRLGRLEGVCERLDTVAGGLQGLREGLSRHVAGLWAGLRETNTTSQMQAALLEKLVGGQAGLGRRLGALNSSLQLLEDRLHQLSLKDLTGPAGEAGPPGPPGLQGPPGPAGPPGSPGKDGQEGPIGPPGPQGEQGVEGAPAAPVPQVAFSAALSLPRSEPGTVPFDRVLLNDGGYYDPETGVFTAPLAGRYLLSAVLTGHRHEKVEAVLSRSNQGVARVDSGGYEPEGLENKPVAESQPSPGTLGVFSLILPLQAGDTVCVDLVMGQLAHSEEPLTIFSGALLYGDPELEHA

| Variant | effect of a mutation on the interaction |
| --- | --- |
| MEFAELIKTPRVDNVVLHRPFYPAVEGTLCLTGHHLILSSRQDNTEELWLLHSNIDAIDKRFVGSLGTIIIKCKDFRIIQLDIPGMEECLNIASSIEALSTLDSITLMYPFFYRPMFEVIEDGWHSILPEQEFELYSSATSEWRLSYVNKEFAVCPSYPPIVTVPKSIDDEALRKVATFRHGGRFPVLSYYHKKNGMVIMRSGQPLTGTNGRRCKEDEKLINATLRAGKRGYIIDTRSLNVAQQTRAKGGGFEQEAHYPQWRRIHKSIERYHILQESLIKLVEACNDQTHNMDRWLSKLEASNWLTHIKEILTTACLAAQCIDREGASILIHGTEGTDSTLQVTSLAQIILEPRSRTIRGFEALIEREWLQAGHPFQQRCAQSAYCNTKQKWEAPVFLLFLDCVWQILRQFPCSFEFNENFLIMLFEHAYASQFGTFLGNNESERCKLKLQQKTMSLWSWVNQPSELSKFTNPLFEANNLVIWPSVAPQSLPLWEGIFLRWNRSSKYLDEAYEEMVNIIEYNKELQAKVNILRRQLAELETEDGMQESP [F127I] | with no effect |

Variants of: B4
Settings: with lnx1_human LNX1, Q8TBB1
Sequence of lnx1_human LNX1, Q8TBB1 (Q8TBB1 whole entry): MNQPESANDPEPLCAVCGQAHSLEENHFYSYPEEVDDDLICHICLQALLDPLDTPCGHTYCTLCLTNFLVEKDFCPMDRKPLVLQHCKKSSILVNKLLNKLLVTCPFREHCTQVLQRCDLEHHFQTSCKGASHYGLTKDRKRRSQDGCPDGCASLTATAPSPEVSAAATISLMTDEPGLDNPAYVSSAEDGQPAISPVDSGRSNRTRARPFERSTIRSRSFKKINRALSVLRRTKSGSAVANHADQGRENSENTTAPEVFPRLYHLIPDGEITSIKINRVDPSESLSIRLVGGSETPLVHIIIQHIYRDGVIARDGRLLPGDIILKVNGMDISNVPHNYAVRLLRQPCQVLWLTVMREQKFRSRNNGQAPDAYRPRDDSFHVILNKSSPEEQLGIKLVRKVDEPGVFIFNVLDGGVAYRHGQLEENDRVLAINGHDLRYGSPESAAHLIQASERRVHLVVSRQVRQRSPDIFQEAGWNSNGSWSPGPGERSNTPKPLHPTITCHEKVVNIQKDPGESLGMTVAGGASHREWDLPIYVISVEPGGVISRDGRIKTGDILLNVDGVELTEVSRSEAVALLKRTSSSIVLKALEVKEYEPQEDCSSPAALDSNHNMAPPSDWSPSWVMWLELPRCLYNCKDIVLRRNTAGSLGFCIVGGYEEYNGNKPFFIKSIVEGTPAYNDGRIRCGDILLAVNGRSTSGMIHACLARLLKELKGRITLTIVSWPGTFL

| Variant | effect of a mutation on the interaction |
| --- | --- |
| MEFAELIKTPRVDNVVLHRPFYPAVEGTLCLTGHHLILSSRQDNTEELWLLHSNIDAIDKRFVGSLGTIIIKCKDFRIIQLDIPGMEECLNIASSIEALSTLDSITLMYPFFYRPMFEVIEDGWHSILPEQEFELYSSATSEWRLSYVNKEFAVCPSYPPIVTVPKSIDDEALRKVATFRHGGRFPVLSYYHKKNGMVIMRSGQPLTGTNGRRCKEDEKLINATLRAGKRGYIIDTRSLNVAQQTRAKGGGFEQEAHYPQWRRIHKSIERYHILQESLIKLVEACNDQTHNMDRWLSKLEASNWLTHIKEILTTACLAAQCIDREGASILIHGTEGTDSTLQVTSLAQIILEPRSRTIRGFEALIEREWLQAGHPFQQRCAQSAYCNTKQKWEAPVFLLFLDCVWQILRQFPCSFEFNENFLIMLFEHAYASQFGTFLGNNESERCKLKLQQKTMSLWSWVNQPSELSKFTNPLFEANNLVIWPSVAPQSLPLWEGIFLRWNRSSKYLDEAYEEMVNIIEYNKELQAKVNILRRQLAELETEDGMQESP [F127I] | with no effect |
